Source: patent US20090232783

Biological target: Ferritin-H (expression plasmid pcEXV-1) (Homo sapiens) (UniProt P02794)
Experiment: cell_activity
Conditions: CV-1 cells, EKLF-stimulated CAT reporter

Chain of Ferritin-H (expression plasmid pcEXV-1) (Homo sapiens) (P02794 2-183): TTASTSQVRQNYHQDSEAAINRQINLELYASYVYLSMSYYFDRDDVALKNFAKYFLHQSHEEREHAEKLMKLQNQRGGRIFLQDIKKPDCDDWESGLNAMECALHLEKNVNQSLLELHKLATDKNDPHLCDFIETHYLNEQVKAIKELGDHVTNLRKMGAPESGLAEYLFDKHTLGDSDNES

“beta-globin -610/+20 promoter in CAT reporter” gave an activity of 62 % repression.
